Laboratory results from the domain aggregation screens of Martell et al. (2025).

experiment: soluble fraction after stress (log2 fold change); higher = more stays soluble; pooled small domains, quantitative proteomics; conditions: stress: pH 4
Summary of the method: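 Values are on a log2 scale, where higher means more of the domain stayed soluble after pH 4 stress. They are fold changes in the soluble amount of each domain from pooled custom libraries, measured by high-throughput quantitative proteomics. The fold change is taken to reflect aggregation propensity.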

Compared with “HMRKVTDTHELSSVVKSVIDQWEEKAAEYRAGKSGLLGFFVGEVMKKTGGAADPEAAKSLLQDRLD”, “HMSSTSTMTVAEATIGRKVKHDKFGEGTIITVADVNGDKKLTIAFNQQGVKMLMLSMAKLEL” is lower in “soluble fraction (log2)” value: -0.285 for the first, -1.05 for the second.

“HMDNIPAHIKAKIINYVNRNYPGAIIKDIERKSNGRYEAEIVYNNREYDLLFDAQGNFISASLDDK” and “HMDKKEFGKRLKNLRIRNKMSQQAMADSLGYTSRSTINKIEEGINEMSYDKIVRLMELYGLSRPDLGLEPI” are within 0.2 log units of each other in “soluble fraction (log2)” value: -0.32 for the first, -0.157 for the second.

“HMISLNEDQKLAILNEWNQRPDDPPFIKELIELVFPDIPEEAKTGRSRYGIAIKKFLAEKSLQAKV” and “HMEQWVSIEVEPGIRLDVALTEATQKSRSFIQNLIAEQRVLVNGQPKKANYKVRPGDHVELNYPEPT” are within 0.2 log units of each other in “soluble fraction (log2)” value: -0.554 for the first, -0.415 for the second.

Going from “HMTSRFITTEEGTLYVDADGRKVSGWQTIDGSRYYFDEHGIRQSGTIEVNGETYVLDEDGVL” to “HMEKAISSLTLEEAKKRLEMVRSEKDASLQIYKETGSETARVTAENYGKEENSLLLHISEMSNIV”, the “soluble fraction (log2)” value rises from -1.51 to -0.209.

Going from “HMHWDIAQADAKQEVMDSSDDKEAIERIQANMFKDPKDHDQEYANKILNDMIDEIKEKGLEAMQHKFAQE” to “HMRKKTYEIITDDLRRMIEAGLIRPGEKLGAIDQLAAKYRVGRSTVREALSHLKALGLVESRQGGGTYVTK”, the “soluble fraction (log2)” value falls from at least 0.43 to 0.109.

“HMSGAQIQQLLESRAPQPGMNPDMIVRRKTYMNNVFNALKGALLRVANGSSPEEVKTEVDAAIQVDPDKL” and “HMLGYGEQEREAQKYLEMHTAFQADPSLQKMYLPENQYALISKVMEMTGIKNVKSYLTPPNEL” are within 0.2 log units of each other in “soluble fraction (log2)” value: -0.151 for the first, -0.236 for the second.

Compared with “HMYMKTITEQFGERLKKIRTQKSLSQEQLSYLADIDRSYISDVERGARNISLENIYKLASALNIPPYLVLL”, “HMKSLAQELVDALGDRIRDGRLKVGDKLPSEAAIEAQYGVSRTVVREAISRLQAAGLVVTRHGIGTFIVGI” is higher in “soluble fraction (log2)” value: -0.344 for the first, at least 0.43 for the second.

First: HMFDLKKIYGTILDETKSSLLLSTDDGREVQIIKTDGTEVLASGLGVYVEVAYRDETPDGYPIALTI
Second: HMNNQVTFSKFLNEVEDGRVVEVNIQGNNITGVLSDGSKFKTFSPNYPNLVEKLSEKGVSINASPL
The “soluble fraction (log2)” value of the first is lower: -0.298 for the first, 0.153 for the second.

First: HMEEHSLRKQEMLRIIEALEQLTPKEKTVVVLYYFKGVLFKDIAMLLDVTEGRISQLHTAAMGRLKKLMD
Second: HMAQLPPTATARATSDVSGLTASAALRTLLEQGFVPQIHGSGKVSRQHPPAGTLLEPGSTIQLFLEPS
The “soluble fraction (log2)” value of the first is lower: -0.632 for the first, at least 0.43 for the second.

“HMEFGEVLAQLRQKRHISQAELGRAIFVSGGTISNYEKGVHFPDVEKLLLLADYFNVTTDYLLGRT” and “HMSYYKEMIRLADSIADKAHEGQTDRNGWPYISHPRRVALGARKLVSEMASSTSPDTSLEELKAEVQIVAL” are within 0.2 log units of each other in “soluble fraction (log2)” value: -0.169 for the first, 0.00833 for the second.

Compared with “HMSQSYHLADRGQSLGTLDYQAVLVGLATGRLSPDTLSWQEGEAGWVALRQRPEFASGVSAVASL”, “HMGASGVEVPDVAGMSTAQAVSSLEQKGFVVNRTESYDAGVEKGNVISQSPEGGTKAPNGSAVTIRISQGA” is higher in “soluble fraction (log2)” value: -0.753 for the first, 0.081 for the second.

Going from “HMGIGSTLTDGVRVYASDDEIVVNAPAESDVRIFNAGGAQLYAGRVADVRVAVAKGLYVVTVDGRSTKITV” to “HMEKSLKELAQGVGQKVLTSGRPYHFDPMSAMERRVVHMTLMEMDGLRTESEGEGRFRHVVVFPA”, the “soluble fraction (log2)” value falls from 0.217 to -0.208.

First: HMFQNPSQVVTTRVGELRAAIPTAQQGRITMGVAVVEDANSVRSVLISTSEPRGYLRPGVTLGPGETMV
Second: HMAPEKLVHELVGLSLRAGNLDLLAATLSAHKTVLSKESTAEYVKAGLAIEPNHLPLRVLAEQDLGWS
The “soluble fraction (log2)” value of the first is higher: 0.106 for the first, -0.936 for the second.

Compared with “HMNPSRPASKEELLGLFEHLERALDAVTFFRPAEKKPVVVQTLRAMLTKASFTEQDIRTMRGVIAALEN”, “HMDERLAKLTPQERKILDLIAEGATNRQIGTELHLAEKTVKNYVSNMLMKLGMSRRTEAAVFAVKASIN” is higher in “soluble fraction (log2)” value: -0.986 for the first, at least 0.43 for the second.

Going from “HMIMISKSFEINEDNINKRLDIFLTENLDGLSRGIVQKYISLEQITVNKESSHKDYRLKLDDFIEVKIQAH” to “HMKTIQVGSTVRVNQGAKTYSGGGLASFVYKRNHKVSQLQGDRAVITYEGTVVAAVHVSDLSLIH”, the “soluble fraction (log2)” value rises from -1.06 to -0.801.

Going from “HMGGLAHPASGEEMEHLFAHLEGELLKSGFLFPPDKAAGMMRNIRAMLTRADFTDQEVRTLRGMIVALSRG” to “HMESNWLTYAKRIQSIADTGMTFAVDDFDKERYQELADISSKMLADLSNIPIGRIENLLGPLGQ”, the “soluble fraction (log2)” value falls from -0.794 to -1.26.

Going from “HMEVPNLIGMTDKDLQRTYFQLPIEAAGDGSVVIKQLPEPGEKVKEGSVIRVLLG” to “HMGGNKILTWKTDAATTRNQVPINERKEGLEISYKNEERNWVAEKYVGTSFSDDKWGVDYNWNQD”, the “soluble fraction (log2)” value falls from 0.00722 to -0.559.

Compared with “HMTFVHTQIEATKEWIISHPLDKHPAVAVVDSAGSIVIGEVDYISKSIVRLRFTAEFSGKAYL”, “HMEHIVNELDRKVIDYLQSHYDAKLNDIAQGIGVSKATATKSIRKLVQTGIVHVVGSSGTGTSYNLTE” is higher in “soluble fraction (log2)” value: -1.79 for the first, 0.0867 for the second.

For “HMGAGLDDLVRKSLHNAGLKADDNVVSWISGNLGSDRMVSRMELEKLVLFVAGQSEITLEDAQAVIGD”, the “soluble fraction (log2)” value was -0.374.
